Data: publication PMC6265350

Legend:
MtrA Y102C~P Y102C = target: T1, MtrA Y102C~P Y102C (UniProt P9WGM7); experiment: EMSA; conditions: 50 mM Tris-HCl pH 7.5, 50 mM NaCl, 10 mM MgCl2, 10 mM CaCl2, […]
T1 sequence: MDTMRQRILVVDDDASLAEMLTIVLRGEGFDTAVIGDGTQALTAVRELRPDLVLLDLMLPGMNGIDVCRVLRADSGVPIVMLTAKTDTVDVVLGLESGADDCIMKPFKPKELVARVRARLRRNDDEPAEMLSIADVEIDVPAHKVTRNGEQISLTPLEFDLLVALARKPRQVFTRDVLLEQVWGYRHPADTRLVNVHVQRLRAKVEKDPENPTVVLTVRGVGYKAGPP

[1] = target: T2, MtrA Y102C (unphosphorylated) Y102C (UniProt P9WGM7); experiment: EMSA; conditions: 50 mM Tris-HCl pH 7.5, 50 mM NaCl, 10 mM MgCl2, 10 mM CaCl2, […]
T2 sequence: T1 sequence

How did the binding (MtrA Y102C~P Y102C) turn out when “CTGTGCAGAGTAGGTGATCGGCGGCCCGACCGCGAGGAGCCGCGCTGTGACTGGCGGGACGAAAGTTACAGATGAAGATATTTGCGTCCGGTGTCGGTGAGCACGCTGCGCAGGATGGTTTCGATGGTGTCGAACTCGGGCTGTCCGCTAATCAGCGGGGGAGCCACCTGGACGACGGGGTCCCCGCGGTCGTCGGTG (double strand) [PdacB1]” was run?
The binding was “binds”.

And the binding [1]?
Its binding is “binds”.
